Holding throughout (test): SPR
Assay [1] has as its target T1, recombinant human haptoglobin β subunit (human, UniProt P00738 162-406).
T1 sequence (looked up): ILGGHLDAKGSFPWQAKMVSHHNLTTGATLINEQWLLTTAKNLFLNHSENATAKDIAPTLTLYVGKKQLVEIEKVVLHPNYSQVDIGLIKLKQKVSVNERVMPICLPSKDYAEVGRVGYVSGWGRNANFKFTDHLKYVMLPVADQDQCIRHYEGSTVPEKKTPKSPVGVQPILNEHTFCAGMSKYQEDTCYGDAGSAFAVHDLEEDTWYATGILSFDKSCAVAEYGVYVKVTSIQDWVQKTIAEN

In assay [2] the target is T2, native human haptoglobin β subunit (human, UniProt P00738 162-406).
T2 sequence (looked up): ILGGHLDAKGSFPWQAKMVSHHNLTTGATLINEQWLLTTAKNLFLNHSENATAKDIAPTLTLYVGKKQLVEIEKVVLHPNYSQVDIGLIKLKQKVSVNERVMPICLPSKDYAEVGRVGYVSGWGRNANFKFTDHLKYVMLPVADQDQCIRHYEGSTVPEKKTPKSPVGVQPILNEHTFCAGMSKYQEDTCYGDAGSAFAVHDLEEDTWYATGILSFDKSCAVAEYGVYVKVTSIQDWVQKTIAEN

The target of assay [3] is recombinant human CD163 protein (human, UniProt Q86VB7-1 42-1050).
Chain of recombinant human CD163 protein (Q86VB7 42-1050): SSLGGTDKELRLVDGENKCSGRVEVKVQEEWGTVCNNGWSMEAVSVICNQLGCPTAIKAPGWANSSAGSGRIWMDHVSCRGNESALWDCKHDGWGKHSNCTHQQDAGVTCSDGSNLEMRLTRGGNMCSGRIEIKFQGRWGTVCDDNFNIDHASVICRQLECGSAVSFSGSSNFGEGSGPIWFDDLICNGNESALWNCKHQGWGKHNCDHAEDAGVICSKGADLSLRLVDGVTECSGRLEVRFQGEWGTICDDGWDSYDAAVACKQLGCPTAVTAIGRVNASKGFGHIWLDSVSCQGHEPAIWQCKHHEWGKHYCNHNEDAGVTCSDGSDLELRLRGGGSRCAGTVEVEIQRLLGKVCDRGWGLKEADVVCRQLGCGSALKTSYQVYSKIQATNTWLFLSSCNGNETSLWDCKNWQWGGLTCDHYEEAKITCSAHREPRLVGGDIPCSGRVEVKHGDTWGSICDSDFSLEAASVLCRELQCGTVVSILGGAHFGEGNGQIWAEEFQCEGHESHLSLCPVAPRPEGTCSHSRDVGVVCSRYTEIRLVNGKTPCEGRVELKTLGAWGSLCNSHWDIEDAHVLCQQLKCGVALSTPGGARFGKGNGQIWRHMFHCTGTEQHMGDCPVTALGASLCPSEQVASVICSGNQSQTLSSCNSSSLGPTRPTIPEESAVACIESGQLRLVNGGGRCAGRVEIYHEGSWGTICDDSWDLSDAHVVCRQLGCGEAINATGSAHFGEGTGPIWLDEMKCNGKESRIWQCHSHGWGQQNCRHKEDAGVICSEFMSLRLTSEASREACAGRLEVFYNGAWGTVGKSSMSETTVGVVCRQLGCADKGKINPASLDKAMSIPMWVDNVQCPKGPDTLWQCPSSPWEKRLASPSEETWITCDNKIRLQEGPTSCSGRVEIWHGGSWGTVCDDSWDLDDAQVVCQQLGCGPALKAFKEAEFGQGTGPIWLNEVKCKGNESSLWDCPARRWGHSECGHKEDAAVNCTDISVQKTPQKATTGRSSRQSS

B1: recombinant disulfide HMGB1 (natural protein, UniProt P09429 1-215, looked up)
chain: MGKGDPKKPRGKMSSYAFFVQTCREEHKKKHPDASVNFSEFSKKCSERWKTMSAKEKGKFEDMAKADKARYEREMKTYIPPKGETKKKFKDPNAPKRPPSAFFLFCSEYRPKIKGEHPGLSIGDVAKKLGEMWNNTAADDKQPYEKKAAKLKEKYEKDIAAYRAKGKPDAAKKGVVKAEKSKKKKEEEEDEEDEEDEEEEEDEEDEDEEEDDDDE
modifications: disulfide redox form (cysteines not named)
For B1, the Kd in assay [1] was 29 nM; in assay [2], 30 nM.

B2: HMGB1-haptoglobin β complexes (1:1 molar ratio) (complex)
chain 1: MGKGDPKKPRGKMSSYAFFVQTCREEHKKKHPDASVNFSEFSKKCSERWKTMSAKEKGKFEDMAKADKARYEREMKTYIPPKGETKKKFKDPNAPKRPPSAFFLFCSEYRPKIKGEHPGLSIGDVAKKLGEMWNNTAADDKQPYEKKAAKLKEKYEKDIAAYRAKGKPDAAKKGVVKAEKSKKKKEEEEDEEDEEDEEEEEDEEDEDEEEDDDDE
chain 2: ILGGHLDAKGSFPWQAKMVSHHNLTTGATLINEQWLLTTAKNLFLNHSENATAKDIAPTLTLYVGKKQLVEIEKVVLHPNYSQVDIGLIKLKQKVSVNERVMPICLPSKDYAEVGRVGYVSGWGRNANFKFTDHLKYVMLPVADQDQCIRHYEGSTVPEKKTPKSPVGVQPILNEHTFCAGMSKYQEDTCYGDAGSAFAVHDLEEDTWYATGILSFDKSCAVAEYGVYVKVTSIQDWVQKTIAEN
Regarding B2, the Kd in assay [3] was found to be 70 nM.

The record behind these values is article PMC5477782 (Journal of internal medicine, 2017).
